In patent US20250289893A1 (OXFORD UNIVERSITY INNOVATION, published 2025):

Key:
[1] = molecular target: Chinese variant CD1a protein (human) (UniProt P06126); assay: ELISA, 10 µg/ml antibody
[2] = molecular target: T1, human CD1a protein (pool B) (human, UniProt P06126 18-295, limits assumed); assay: ELISA, 1 µg/ml antibody
T1 construct: Recombinant protein of the ELISA (coated) and the Biacore T200 titration; whole entry named; also called human CD1a pool B; full length CD1a
Method: (§1) CD1a-specific antibodies were identified by ELISA. […] 20 μl/well of peroxidase-conjugated goat anti-species IgG Fc-specific F(ab′)2 fragment (Jackson ImmunoResearch), diluted 1:5000 in block buffer was added and incubated at room temperature for 1 hour, followed by washing with wash buffer.
(§2) The antibodies were titrated through a dilution series and compared to a control rabbit IgG antibody.

[3] = molecular target: T1, human CD1a protein (pool B); assay: ELISA, 100 µg/ml antibody
Method: as §1, §2

[4] = molecular target: T2, chimeric CD1a pool B protein [human CD1a lipid binding domain, mouse CD1d Ig domain] (human; mouse, UniProt P06126 18-201; P11609 205-297, limits assumed); assay: ELISA, 100 µg/ml antibody
T2 sequence (P06126 other isoform, or with tags, fused parts or gaps mutant limits assumed): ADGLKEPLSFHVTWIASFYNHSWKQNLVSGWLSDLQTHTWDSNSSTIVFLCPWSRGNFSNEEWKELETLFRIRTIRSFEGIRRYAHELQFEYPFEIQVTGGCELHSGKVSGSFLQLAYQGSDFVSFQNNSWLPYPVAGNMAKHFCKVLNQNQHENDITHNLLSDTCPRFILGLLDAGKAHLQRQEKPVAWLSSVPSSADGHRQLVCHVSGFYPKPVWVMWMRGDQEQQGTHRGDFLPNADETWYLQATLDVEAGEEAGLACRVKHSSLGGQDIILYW
Method: as §1
(§3) The antibodies were titrated through a dilution series and compared to a control rabbit IgG antibody. […] Data shown for purified antibodies.

[5] = molecular target: T3, Cynomolgus monkey CD1a protein (Cynomolgus monkey); assay: ELISA, 0.1 µg/ml antibody
T3 chain: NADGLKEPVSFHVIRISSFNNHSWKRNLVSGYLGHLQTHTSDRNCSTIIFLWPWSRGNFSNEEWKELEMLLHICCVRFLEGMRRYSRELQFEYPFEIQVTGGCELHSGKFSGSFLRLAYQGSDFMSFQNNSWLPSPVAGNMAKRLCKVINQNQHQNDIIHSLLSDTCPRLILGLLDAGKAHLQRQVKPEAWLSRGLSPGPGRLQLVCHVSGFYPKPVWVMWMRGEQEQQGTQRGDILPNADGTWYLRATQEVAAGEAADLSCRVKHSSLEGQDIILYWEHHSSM

[6] = molecular target: T2, chimeric CD1a pool B protein [human …; assay: ELISA, 3.16 µg/ml antibody
Method: as §1, §3

[7] = molecular target: T4, human CD1a expressed on cells (human, UniProt P06126 17-327; P61769 21-119); assay: flow cytometry, C1R cells, 0.1 µg/ml antibody
T4 construct: also called HEK - CD1a; C1R - CD1a
Method: (§4) Binding to proteins expressed on HEK, C1R and MOLT4 cell lines was assessed. […] The C1R-CD1a, C1R-empty vector and MOLT4 cell lines were washed in 1×PBS on the day required. All cell lines were counted and resuspended in 1×PBS and then stained for 30 minutes at 37° C. using the DiI or DiO cellular stains (Invitrogen). Cells were washed with flow cytometry buffer (1% bovine serum albumin, 2 mM EDTA and 0.1% sodium azide in PBS) before mixing 2 DiI-stained and DiO-stained populations together. The cells (20 μl/well) were then added to dilutions of antibody sample (B cell culture supernatant, TAP supernatant, clone supernatant, purified antibody solution) (20 μl/well) and incubated for 1 hour at 4° C. in a flow cytometry assay plate, before being washed with flow cytometry buffer. 10 μl/well of Alexafluor647-conjugated goat anti-species IgG Fc-specific F(ab′)2 fragment (Jackson ImmunoResearch), diluted 1:2500 in flow cytometry buffer, was added and incubated at 4° C. for 30 minutes, followed by washing with wash buffer. The fluorescence intensity was then measured on an iQue screener PLUS.
(§5) Binding was quantified as fold change in fluorescence intensity geomean over background assessed by flow cytometry.

[8] = molecular target: T4, human CD1a expressed on cells; assay: flow cytometry, MOLT4 cells, 1 µg/ml antibody
Method: (§6) CD1a-specific antibodies were identified by flow cytometry. Binding to proteins expressed on HEK, C1R and MOLT4 cell lines was assessed. […] The C1R-CD1a, C1R-empty vector and MOLT4 cell lines were washed in 1×PBS on the day required. All cell lines were counted and resuspended in 1×PBS and then stained for 30 minutes at 37° C. using the DiI or DiO cellular stains (Invitrogen). Cells were washed with flow cytometry buffer (1% bovine serum albumin, 2 mM EDTA and 0.1% sodium azide in PBS) before mixing 2 DiI-stained and DiO-stained populations together. The cells (20 μl/well) were then added to dilutions of antibody sample (B cell culture supernatant, TAP supernatant, clone supernatant, purified antibody solution) (20 μl/well) and incubated for 1 hour at 4° C. in a flow cytometry assay plate, before being washed with flow cytometry buffer. 10 μl/well of Alexafluor647-conjugated goat anti-species IgG Fc-specific F(ab′)2 fragment (Jackson ImmunoResearch), diluted 1:2500 in flow cytometry buffer, was added and incubated at 4° C. for 30 minutes, followed by washing with wash buffer. The fluorescence intensity was then measured on an iQue screener PLUS.
as §5

[9] = molecular target: T4, human CD1a expressed on cells; assay: flow cytometry, MOLT4 cells, 0.1 µg/ml antibody
Method: as §6, §5

[10] = molecular target: T4, human CD1a expressed on cells; assay: flow cytometry, C1R cells, 0.0316 µg/ml antibody
Method: as §4, §5

[11] = molecular target: T4, human CD1a expressed on cells; assay: flow cytometry, MOLT4 cells, 3.16 µg/ml antibody
Method: as §6, §5

[12] = molecular target: T4, human CD1a expressed on cells; assay: flow cytometry, MOLT4 cells, 31.6 µg/ml antibody
Method: as §6, §5

[13] = molecular target: Cynomolgus monkey CD1a expressed on HEK-293 cells (Cynomolgus monkey, UniProt A0A2K5VQ68 17-326); assay: flow cytometry, HEK-293 cells, 10 µg/ml antibody
Chain of Cynomolgus monkey CD1a expressed on HEK-293 cells (A0A2K5VQ68 entry or part of it): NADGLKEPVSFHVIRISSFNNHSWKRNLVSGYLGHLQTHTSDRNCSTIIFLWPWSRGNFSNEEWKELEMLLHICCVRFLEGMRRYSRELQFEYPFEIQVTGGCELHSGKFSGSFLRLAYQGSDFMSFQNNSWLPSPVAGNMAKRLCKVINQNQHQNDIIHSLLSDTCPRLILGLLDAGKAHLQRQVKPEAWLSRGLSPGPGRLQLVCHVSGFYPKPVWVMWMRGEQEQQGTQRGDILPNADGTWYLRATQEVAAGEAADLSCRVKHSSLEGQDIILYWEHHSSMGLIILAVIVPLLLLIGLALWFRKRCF
Method: as §4, §5

[14] = molecular target: T5, human CD1b expressed on HEK-293 cells (human, UniProt P29016 18-333; P61769 21-119); assay: flow cytometry, HEK-293 cells, 0.1 µg/ml antibody
T5 construct: also called HEK - CD1b
Method: as §4
(§7) HEK-293 cells were transiently transfected with human CD1a, CD1b, CD1c or CD1d and co-transfected with human β2M.

[15] = molecular target: T6, human CD1c expressed on HEK-293 cells (human, UniProt P29017 18-333; P61769 21-119); assay: flow cytometry, HEK-293 cells, 0.1 µg/ml antibody
T6 construct: also called HEK - CD1c
Method: as §4, §7

[16] = molecular target: T4, human CD1a expressed on cells; assay: flow cytometry, HEK-293 cells, 31.6 µg/ml antibody
Method: as §4, §7

[17] = molecular target: T5, human CD1b expressed on HEK-293 cells; assay: flow cytometry, HEK-293 cells, 31.6 µg/ml antibody
Method: as §4, §7

[18] = molecular target: T6, human CD1c expressed on HEK-293 cells; assay: flow cytometry, HEK-293 cells, 31.6 µg/ml antibody
Method: as §4, §7

[19] = molecular target: T7, human CD1d expressed on HEK-293 cells (human, UniProt P15813 20-335; P61769 21-119); assay: flow cytometry, HEK-293 cells, 31.6 µg/ml antibody
T7 construct: also called HEK - CD1d
Method: as §4, §7

[20] = molecular target: T4, human CD1a expressed on cells; assay: flow cytometry, MOLT4 cells, 0.0316 µg/ml antibody
Method: as §6, §5

[21] = molecular target: T4, human CD1a expressed on cells; assay: flow cytometry, HEK-293 cells, 0.316 µg/ml antibody
Method: as §4, §7

[22] = molecular target: T5, human CD1b expressed on HEK-293 cells; assay: as above
Method: as §4, §7

[23] = molecular target: T6, human CD1c expressed on HEK-293 cells; assay: as above
Method: as §4, §7

[24] = molecular target: T7, human CD1d expressed on HEK-293 cells; assay: as above
Method: as §4, §7

[25] = molecular target: T1, human CD1a protein (pool B); assay: SPR (Biacore T200), antibody captured, human CD1a titrated, 1:1 binding model
Method: The affinity of the purified antibodies to human CD1a was assessed using a Biacore T200 instrument (GE Healthcare) by capturing the antibody to an immobilized anti-species IgG F(ab′)2 followed by titration of human CD1a. Affinipure Goat anti-species IgG-F(ab′)2 fragment specific (Jackson ImmunoResearch) was immobilized on a CM5 Sensor Chip (GE Healthcare) via amine coupling chemistry to a capture level of ˜5000 response units (RUs). HBS-EP+ buffer (10 mM HEPES pH 7.4, 0.15 M NaCl, 3 mM EDTA, 0.05% Surfactant P20, GE Healthcare) was used as the running buffer with a flow rate of 10 μL/min. A 10 μL injection of test antibody at 0.5 μg/mL was used for capture by the immobilized Goat Anti-species Fab.
The surface was regenerated between cycles by injection of 2×10 μL of 40 mM HCl, interspersed by a 10 μL injection of 5 mM NaOH at flowrate of 10 μL/min. Background subtraction binding curves were analyzed using the Biacore T200 evaluation software following standard procedures. Kinetic parameters were determined from the fitting algorithm. This assay was performed at the clone supernatant and purified antibody stage.
Affinity was required to be <100 nM to be considered for progression.

T1 sequence (P06126 18-295 limits assumed): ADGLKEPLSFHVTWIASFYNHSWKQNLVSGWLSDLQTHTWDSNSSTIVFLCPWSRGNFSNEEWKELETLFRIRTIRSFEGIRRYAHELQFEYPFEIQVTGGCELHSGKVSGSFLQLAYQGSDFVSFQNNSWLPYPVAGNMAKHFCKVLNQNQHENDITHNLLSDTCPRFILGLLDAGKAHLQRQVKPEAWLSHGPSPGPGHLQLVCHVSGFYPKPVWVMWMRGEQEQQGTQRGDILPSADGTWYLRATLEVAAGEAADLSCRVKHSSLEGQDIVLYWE
Chain of Chinese variant CD1a protein (human) (P06126 18-295, change not shown): as the sequence (P06126 18-295 limits assumed) above

B1: 116 (VR12117) (antibody, V domains shown)
VH: QSVEESGGRLVTPGTPLTLTCTVSGFSLSNYAMSWVRQAPGKGLEWIGIIYTTGFTYYASWVKGRFTISKTSTTVDLKITSPTTEDTATYFCARGLATYVSPPTRLDLWGQGTLVTVSS
VL: AQVLTQTPSPVSAAVGGTVTINCQASQSIYNSKNLAWYQQKPGQPPKLLIYSASTLASGVPSRFKGSGSGTQFTLTISDLECDDAATYYCQGEFSCSSVDCATFGGGTEVVVK
notes: also called OX116
- Optical Density (OD) [1]: 1.51 OD
- Optical Density (OD) [2]: 1.15 OD
- Optical Density (OD) [3]: 1.15 OD
- Optical Density (OD) [4]: 1.37 OD
- Optical Density (OD) [5]: 0.07 OD
- Optical Density (OD) [6]: 1.38 OD
- Fluorescence Intensity Geomean (normalized to background) [7]: 27 fold over background
- Fluorescence Intensity Geomean (normalized to background) [8]: 30.6 fold over background
- Fluorescence Intensity Geomean (normalized to background) [9]: 22.6 fold over background
- Fluorescence Intensity Geomean (normalized to background) [10]: 24.1 fold over background
- Fluorescence Intensity Geomean (normalized to background) [11]: 23.9 fold over background
- Fluorescence Intensity Geomean (normalized to background) [12]: 5.6 fold over background
- Fluorescence Intensity Geomean (normalized to background) [13]: 1.7 fold over background
- Fluorescence Intensity Geomean (normalized to background) [14]: 1 fold over background
- Fluorescence Intensity Geomean (normalized to background) [15]: 1 fold over background
- Fluorescence Intensity Geomean (normalized to background) [16]: 5.6 fold over background
- Fluorescence Intensity Geomean (normalized to background) [17]: 1 fold over background
- Fluorescence Intensity Geomean (normalized to background) [18]: 1 fold over background
- Fluorescence Intensity Geomean (normalized to background) [19]: 1 fold over background
- Fluorescence Intensity Geomean (normalized to background) [20]: 14.9 fold over background
- Fluorescence Intensity Geomean (normalized to background) [21]: 36.5 fold over background
- Fluorescence Intensity Geomean (normalized to background) [22]: 1 fold over background
- Fluorescence Intensity Geomean (normalized to background) [23]: 1.1 fold over background
- Fluorescence Intensity Geomean (normalized to background) [24]: 1 fold over background
- Kd [25]: 2.89 nM
- koff [25]: 0.0014 s⁻¹
- kon [25]: 483000 M⁻¹ s⁻¹
